According to US20090075925A1 (published 2009):

B1: ACF of nuclear extract treated with calf intestinal alkaline phosphatase (CIAP) (other, rat, UniProt Q923K9-2 1-586, looked up)
chain: MESNHKSGDGLSGTQKEAALRALVQRTGYSLVQENGQRKYGGPPPGWDTTPPERGCEIFIGKLPRDLFEDELIPLCEKIGKIYEMRMMMDFNGNNRGYAFVTFSNKQEAKNAIKQLNNYEIRNGRLLGVCASVDNCRLFVGGIPKTKKREEILSEMKKVTEGVVDVIVYPSAADKTKNRGFAFVEYESHRAAAMARRRLLPGRIQLWGHPIAVDWAEPEVEVDEDTMSSVKILYVRNLMLSTSEEMIEKEFNSIKPGAVERVKKIRDYAFVHFSNREDAVEAMKALNGKVLDGSPIEVTLAKPVDKDSYVRYTRGTGGRNTMLQEYTYPLSHVYDPTTTYLGAPVFYTPQAYAAIPSLHFPATKGHLSNRALIRTPSVRGAAGVRGLGGRGYLAYTGLGRGYQVKGDKRQDKLYDLLPGMELTPMNTISLKPQGVKLAPQILEEICQKNNWGQPVYQLHSAIGQDQRQLFLYKVTIPALASQNPAIHPFTPPKLSAYVDEAKRYAAEHTLQTLGIPTEGGDAGTTAPTATSATVFPGYAVPSATAPVSTAQLKQAVTLGQDLAAYTTYEVYPTFAVTTRGDGYGTF
modifications: phosphates removed by CIAP treatment of the extract

How the values were obtained:
[1] = biological target: T1, rat APOBEC-1 (endogenous, rat liver nuclear extract and McArdle cells) (rat); assay: cell-based or functional assay
T1 sequence (P38483 1-229, looked up): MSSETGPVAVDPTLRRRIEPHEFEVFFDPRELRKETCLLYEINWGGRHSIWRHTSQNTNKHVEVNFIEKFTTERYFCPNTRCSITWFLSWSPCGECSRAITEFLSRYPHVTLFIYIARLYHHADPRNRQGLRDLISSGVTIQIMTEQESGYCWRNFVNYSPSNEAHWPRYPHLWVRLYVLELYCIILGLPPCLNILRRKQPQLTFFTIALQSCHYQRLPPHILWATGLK

[2] = biological target: B1; assay: co-immunoprecipitation with ACF CT antibody from CIAP-treated McArdle nuclear extract, anti-HA western blot, densitometry (FIG. 2A)

| Binder | fold decrease in in vitro ApoB mRNA editing activity of CIAP-treated nuclear extract (poisoned-primer extension) [1] [fold] | fold reduction of APOBEC-1 recovered with immunoprecipitated ACF (CIAP-treated against control nuclear extract) [2] [fold] |
| --- | --- | --- |
| B1 | 2.5 | – |
| HA epitope-tagged APOBEC-1 stably expressed in McArdle RH7777 cells (enzyme, UniProt P38483 1-229, looked up, not shown: small tags and cut ends, also called HA-tagged APOBEC-1) MSSETGPVAVDPTLRRRIEPHEFEVFFDPRELRKETCLLYEINWGGRHSIWRHTSQNTNKHVEVNFIEKFTTERYFCPNTRCSITWFLSWSPCGECSRAITEFLSRYPHVTLFIYIARLYHHADPRNRQGLRDLISSGVTIQIMTEQESGYCWRNFVNYSPSNEAHWPRYPHLWVRLYVLELYCIILGLPPCLNILRRKQPQLTFFTIALQSCHYQRLPPHILWATGLK | – | 3 |
